No end group written: not given here.
Molecular target: His6-E6AP ligase (full-length, baculovirus-expressed) (human) (UniProt Q05086)
Experiment: inhibition of His6-E6AP-catalyzed 125I-polyubiquitin chain formation, semi-reciprocal plot; non-competitive versus UbcH7

Ki: 22 µM
B1: N-acetyl-… peptide (peptide)
peptide: Ac-NRIRMYSERRITVLYSL
